# Measured values from patent US20240052042A1 (Novartis, published 2024).
# T1: rNPR1-ANP complex (rat, UniProt P01160 124-151 (human entry), limits assumed)
# T1 construct: rNPR1 antigen in the presence of ANP; also called rNPR1 + 100 nM ANP
# T1 sequence: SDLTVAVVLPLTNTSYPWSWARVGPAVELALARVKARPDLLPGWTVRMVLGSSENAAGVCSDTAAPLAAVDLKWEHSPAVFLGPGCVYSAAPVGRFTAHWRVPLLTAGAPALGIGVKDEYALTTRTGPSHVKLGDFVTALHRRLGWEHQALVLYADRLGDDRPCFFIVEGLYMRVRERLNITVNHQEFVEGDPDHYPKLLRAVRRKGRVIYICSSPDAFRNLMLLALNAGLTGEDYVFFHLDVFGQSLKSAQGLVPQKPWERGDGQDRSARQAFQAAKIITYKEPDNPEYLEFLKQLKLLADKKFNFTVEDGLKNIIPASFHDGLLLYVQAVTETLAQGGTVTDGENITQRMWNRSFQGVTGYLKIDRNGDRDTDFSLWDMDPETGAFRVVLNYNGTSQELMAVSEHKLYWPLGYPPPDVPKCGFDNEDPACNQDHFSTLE
# T1 sequence (peptide): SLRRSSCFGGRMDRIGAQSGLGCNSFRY
# T2: hNPR1-ANP complex (human, UniProt P01160 124-151, limits assumed)
# T2 construct: hNPR1 antigen in the presence of ANP; also called hNPR1 + 100 nM ANP
# T2 sequence: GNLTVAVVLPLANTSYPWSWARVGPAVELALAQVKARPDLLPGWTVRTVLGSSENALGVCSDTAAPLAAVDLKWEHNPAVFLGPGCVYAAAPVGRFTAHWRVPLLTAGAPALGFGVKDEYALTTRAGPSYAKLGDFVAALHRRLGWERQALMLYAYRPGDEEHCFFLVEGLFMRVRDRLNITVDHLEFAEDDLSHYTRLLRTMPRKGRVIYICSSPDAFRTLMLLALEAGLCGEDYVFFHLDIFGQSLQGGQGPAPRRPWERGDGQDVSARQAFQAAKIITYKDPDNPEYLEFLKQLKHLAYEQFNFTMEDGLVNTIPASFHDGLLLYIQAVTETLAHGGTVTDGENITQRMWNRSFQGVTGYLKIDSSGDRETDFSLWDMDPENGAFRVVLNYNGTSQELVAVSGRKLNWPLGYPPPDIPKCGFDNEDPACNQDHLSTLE
# T2 sequence (peptide): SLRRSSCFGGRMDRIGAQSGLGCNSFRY
# T3: human Natriuretic Peptide Receptor 1 (hNPR1) (human, UniProt P16066 33-473, limits assumed)
# T3 construct: pannings used NPR1-hFc; also called NPR1-hFc
# T3 sequence: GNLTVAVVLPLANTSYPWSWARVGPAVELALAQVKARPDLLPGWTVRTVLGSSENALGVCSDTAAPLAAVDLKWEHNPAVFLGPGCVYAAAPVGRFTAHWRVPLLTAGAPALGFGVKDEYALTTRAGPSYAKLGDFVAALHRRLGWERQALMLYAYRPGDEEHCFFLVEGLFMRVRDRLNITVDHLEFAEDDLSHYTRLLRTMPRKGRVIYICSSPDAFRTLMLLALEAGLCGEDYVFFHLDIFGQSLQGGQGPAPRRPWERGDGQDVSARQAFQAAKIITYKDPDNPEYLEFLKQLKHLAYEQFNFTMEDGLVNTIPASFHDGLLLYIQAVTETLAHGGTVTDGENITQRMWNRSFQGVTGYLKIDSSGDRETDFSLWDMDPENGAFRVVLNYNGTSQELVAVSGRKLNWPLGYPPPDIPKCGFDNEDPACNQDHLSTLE
# T4: rat NPR1 (rNPR1) (rat, UniProt P18910 29-469, limits assumed)
# T4 construct: Soluble antigen
# T4 sequence: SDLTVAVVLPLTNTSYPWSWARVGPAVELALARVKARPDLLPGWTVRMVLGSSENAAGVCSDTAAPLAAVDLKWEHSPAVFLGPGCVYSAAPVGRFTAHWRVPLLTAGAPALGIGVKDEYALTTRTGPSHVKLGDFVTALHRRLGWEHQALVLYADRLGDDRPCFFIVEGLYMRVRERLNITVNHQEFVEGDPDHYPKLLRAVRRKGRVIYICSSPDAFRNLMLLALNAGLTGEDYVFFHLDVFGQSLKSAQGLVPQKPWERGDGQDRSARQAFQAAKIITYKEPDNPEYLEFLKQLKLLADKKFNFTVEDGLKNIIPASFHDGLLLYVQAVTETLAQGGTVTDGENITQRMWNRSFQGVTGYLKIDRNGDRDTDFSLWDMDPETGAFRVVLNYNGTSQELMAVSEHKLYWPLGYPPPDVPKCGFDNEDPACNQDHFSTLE
# T5: human NPR1 on CHO-K1 cells (human, UniProt P16066 33-1061)
# T5 sequence: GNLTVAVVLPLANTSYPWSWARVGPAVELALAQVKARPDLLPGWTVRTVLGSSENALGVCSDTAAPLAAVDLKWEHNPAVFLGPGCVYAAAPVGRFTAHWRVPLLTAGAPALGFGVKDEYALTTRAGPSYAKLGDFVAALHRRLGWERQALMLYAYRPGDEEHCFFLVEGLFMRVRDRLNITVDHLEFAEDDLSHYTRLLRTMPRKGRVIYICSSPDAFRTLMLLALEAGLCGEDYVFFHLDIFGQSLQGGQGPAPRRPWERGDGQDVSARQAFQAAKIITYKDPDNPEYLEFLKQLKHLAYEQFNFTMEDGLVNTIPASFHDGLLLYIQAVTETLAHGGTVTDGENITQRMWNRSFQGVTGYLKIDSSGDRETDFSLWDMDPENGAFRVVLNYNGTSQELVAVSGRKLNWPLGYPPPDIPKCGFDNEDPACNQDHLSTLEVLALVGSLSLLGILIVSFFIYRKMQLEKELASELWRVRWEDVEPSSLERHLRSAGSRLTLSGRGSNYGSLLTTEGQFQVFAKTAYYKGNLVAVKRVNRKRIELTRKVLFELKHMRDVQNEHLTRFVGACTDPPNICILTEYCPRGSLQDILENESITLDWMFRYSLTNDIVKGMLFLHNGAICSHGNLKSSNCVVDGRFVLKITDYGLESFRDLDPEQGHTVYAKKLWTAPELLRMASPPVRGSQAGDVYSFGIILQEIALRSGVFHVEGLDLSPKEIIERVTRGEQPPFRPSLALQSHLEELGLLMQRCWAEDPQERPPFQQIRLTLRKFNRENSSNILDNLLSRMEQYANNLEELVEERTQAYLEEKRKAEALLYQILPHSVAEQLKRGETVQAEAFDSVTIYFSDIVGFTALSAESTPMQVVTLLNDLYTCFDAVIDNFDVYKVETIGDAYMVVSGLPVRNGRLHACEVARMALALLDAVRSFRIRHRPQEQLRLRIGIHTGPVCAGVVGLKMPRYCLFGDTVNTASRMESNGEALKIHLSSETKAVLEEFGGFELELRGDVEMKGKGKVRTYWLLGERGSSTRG
# Legend:
# rNPR1-ANP complex = biological target: T1, rNPR1-ANP complex; assay: SET, FabCys
# hNPR1-ANP complex = biological target: T2, hNPR1-ANP complex; assay: SET, FabCys
# [1] = biological target: T3, human Natriuretic Peptide Receptor 1 …; assay: SET, FabCys
# rat NPR1 (rNPR1) [2] = biological target: T4, rat NPR1 (rNPR1); assay: SET, FabCys
# rat NPR1 (rNPR1) [3] = biological target: T4, rat NPR1 (rNPR1); assay: SET, FabCys; remark: listed apart in the source
# [4] = biological target: T5, human NPR1 on CHO-K1 cells; assay: cell-based or functional assay
Binder,Kd (rNPR1-ANP complex) [pM],Kd (hNPR1-ANP complex) [pM],Kd [1] [pM],Kd (rat NPR1 (rNPR1) [2]) [pM],rat/human KD ratio (rat NPR1 (rNPR1) [3]),"cGMP conc [nM] at 2 µM FabCys, +0.075 nM ANP [4] [nM]","cGMP conc [nM] at 2 µM FabCys, without ANP [4] [nM]"
"XX06 (FabCys format) (Fab, V domains shown, Monovalent FabCys) VH: QVQLLESGGGLVQPGGSLRLSCAASGFTFSSYWMNWVRQAPGKGLEWVSAISSDGSYTYYADSVKGRFTISRDNSKNTLYLQMNSLRAEDTAVYYCARDRYSMIYSYGAGAFDYWGQGTLVTVSS VL: DIQMTQSPSSLSASVGDRVTITCRASQGISSYLAWYQQKPGKAPKLLIYTASTLQSGVPSRFSGSGSGTDFTLTISSLQPEDFATYYCQQTWRKPRTFGQGTKVEIK",300,100,10000,2300,< 5,,
"XX01 (FabCys format) (Fab, V domains shown, Monovalent FabCys) VH: EVQLLESGGGLVQPGGSLRLSCAASGFTFNTHYIHWVRQAPGKGLEWVSSISSSGQSTYYADSVKGRFTISRDNSKNTLYLQMNSLRAEDTAVYYCARERGYVYYHMFDPWGQGTLVTVSS VL: DIVLTQSPATLSLSPGERATLSCRASQSITRNYLAWYQQKPGQAPRLLIYGASSRATGIPARFSGSGSGTDFTLTISSLEPEDFAVYYCQQHSMYPRTFGQGTKVEIK",500,300,43000,1400,< 5,,
"WW06 (FabCys format) (Fab, V domains shown) VH: QVQLVQSGAEVKKPGESLKISCKGSGYSFTSYWIAWVRQMPGKGLEWMGRIDPDNSYTRYSPSFQGQVTISADKSISTAYLQWSSLKASDTAMYYCARWLSPGYALGEQPAGMDHWGQGTLVTVSS VL: DIVLTQPPSVSGAPGQRVTISCTGSSSNIGAGYAVHWYQQLPGTAPKLLIYSNNKRPSGVPDRFSGSKSGTSASLAITGLQAEDEADYYCQSYDLQKSSRVFGGGTKLTVL",,,,,,251,281

# More lines, now with the values ahead:
Kd (rNPR1-ANP complex) [pM],Kd (hNPR1-ANP complex) [pM],Kd [1] [pM],Kd (rat NPR1 (rNPR1) [2]) [pM],rat/human KD ratio (rat NPR1 (rNPR1) [3]),"cGMP conc [nM] at 2 µM FabCys, +0.075 nM ANP [4] [nM]","cGMP conc [nM] at 2 µM FabCys, without ANP [4] [nM]",Binder
100,200,22000,1100,< 5,,,"XX03 (FabCys format) (Fab, V domains shown, Monovalent FabCys) VH: EVQLLESGGGLVQPGGSLRLSCAASGFTFSSYWMNWVRQAPGKGLEWVSVIESKGNYIFYADSVKGRFTISRDNSKNTLYLQMNSLRAEDTAVYYCARDRYSMIYSYGAGAFDYWGQGTLVTVSS VL: DIQMTQSPSSLSASVGDRVTITCRASQGISSYLAWYQQKPGKAPKLLIYTASTLQSGVPSRFSGSGSGTDFTLTISSLQPEDFATYYCMQSYEKPRTFGQGTKVEIK"
200,300,46000,1800,< 5,,,"XX08 (FabCys format) (Fab, V domains shown, Monovalent FabCys) VH: EVQLLESGGGLVQPGGSLRLSCAASGFTFNTHYIHWVRQAPGKGLEWVSSIGGQGGMTLYADSVKGRFTISRDNSKNTLYLQMNSLRAEDTAVYYCARERGYVYYHMFDPWGQGTLVTVSS VL: DIVLTQSPATLSLSPGERATLSCRASQSITRNYLAWYQQKPGQAPRLLIYGASSRATGIPARFSGSGSGTDFTLTISSLEPEDFAVYYCQQHSMYPRTFGQGTKVEIK"
